According to publication PMC6863750:

How the values were obtained:
[1] = target: Rac1A P29S/Q61L-mCherry-mito (targeted to mitochondria) (D. discoideum) (UniProt P34144); assay: mitochondrial co-recruitment
[2] = target: GFP-CYRI-mito, WT (Dictyostelium CYRI targeted to mitochondria) (D. discoideum); assay: mitochondrial co-recruitment

Row | Pearson's coefficient of correlation for co-localisation at the mitochondria [1] | Pearson's coefficient of correlation for co-localisation at the mitochondria [2] | Substance
1 | 0.77 | – | Dictyostelium CYRI WT, GFP fusion (natural protein)
2 | – | 0.44 | Rac1A P29S/Q61L-mCherry (from UniProt P34144 1-194) (natural protein)
